These binders were tested against T1, synthetic amylospheroids (synthetic ASPD) (UniProt P05067 672-713) (assay: ASPD pre-incubated with peptide, imaging of ASPD bound to rat hippocampal neurons).
T1 construct: Spherical Abeta assembly of about 10 nm, made in vitro; In SPR it was solid-phased on the chip; In the imaging assay it was pre-incubated with peptide and added to neurons
Experimental: A liquid mixture of peptide and synthetic ASPD was incubated at 4° C. for 15 minutes to pretreat the ASPD and this liquid mixture was added to primary cultured rat hippocampal neurons cultured in a 96-well plate.
After incubation at 37° C. for 15 minutes in a CO₂ incubator, the wells were washed with PBS. Then, 2% paraformaldehyde (50 μl/well) was added thereto for immobilization performed for 20 minutes at 37° C. and further 4% paraformaldehyde (50 μl/well) was added thereto for immobilization performed for 20 minutes at 37° C. After washing and blocking, a primary antibody solution containing anti-ASPD antibody (mASD3) and anti-MAP2 antibody (trade name: sc-20172, manufactured by SANTACRUZ) was added, which then was left overnight. After washing, a secondary antibody solution containing Alexa Fluoro (trademark) 568 anti-mouse antibody (trade name: A11031, manufactured by life technologies), Alexa Fluoro (trademark) 488 anti-rabbit antibody (trade name: A11034, manufactured by life technologies), and DAPI (trade name: D523, manufactured by Dojindo) was added and then fluorescence microscopic observation was performed.
Subsequently, steps 4 to 5 were performed as follows: From the microscopic observation data, a calibration curve as shown in FIG. 2 was drawn, an approximate curve was created within a range where linearity was maintained, and then ED₅₀ was calculated. Using, as an indicator, “titer” that is defined by the ratio of ED₅₀ of the ASPD treated with peptide to ED₅₀ of the ASPD alone, the ASPD-binding inhibitory ability of peptide was evaluated.

T1 sequence (P05067 672-713): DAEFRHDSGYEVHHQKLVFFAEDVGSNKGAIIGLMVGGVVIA

ASPD-binding inhibitory ability (titer = ED50[ASPD+Peptide]/ED50[ASPD]) | Binder
1.5 | HFAW (also called HFAW) [Peptide 20]
1.5 | HFKW (also called HFKW) [Peptide 22]
1.5 | HFYW (also called HFYW) [Peptide 24]
1.5 | HHNW (also called HHNW) [Peptide 05]
1.5 | HFRW (also called HFRW) [Peptide 16]
1.5 | HTNW (also called HTNW) [Peptide 09]
1.5 | HFHW (also called HFHW) [Peptide 23]
1.5 | HFWW (also called HFWW) [Peptide 15]
1.5 | HFMW (also called HFMW) [Peptide 17]
1.5 | HQNW (also called HQNW) [Peptide 07]
1.5 | HFDW (also called HFDW) [Peptide 18]
1.5 | HKNW (also called HKNW) [Peptide 03]
1.5 | HFVW (also called HFVW) [Peptide 21]
1.5 | HVNW (also called HVNW) [Peptide 11]
1.5 | HRNW (also called HRNW) [Peptide 02]
1.5 | HYNW (also called HYNW) [Peptide 08]
1.5 | HDNW (also called HDNW) [Peptide 04]
1.5 | HFEW (also called HFEW) [Peptide 19]
1.5 | HFIW (also called HFIW) [Peptide 14]
1.5 | HWNW (also called HWNW) [Peptide 06]
1.5 | HFLW (also called HFLW) [Peptide 12]
1.5 | HANW (also called HANW) [Peptide 10]
1.5 | HFGW (also called HFGW) [Peptide 13]

The binders below were run against T1, synthetic amylospheroids (synthetic …) (assay: SPR, synthetic ASPD solid-phased on the chip, peptide as analyte).
Experimental: Synthetic ASPD were solid-phased on a chip and each peptide shown in Table 3 below was allowed to flow as an analyte. Then the dissociation constant (KD) was determined by surface plasmon resonance (SPR).
Two peptides (HNNW (SEQ ID NO: 27) and HPNW (SEQ ID NO: 28)) that could not inhibit the binding of ASPD to neurons in the evaluation performed in section 1 above were used as negative controls.

binding result | Binder
no binding | HNNW [HNNW (negative control peptide)]
no binding | HPNW [HPNW (negative control peptide)]

Reference: patent US20190145962A1 (TAO HEALTH LIFE PHARMA, published 2019)
